Patent US20100015637A1 (AbbVie / Abbott, published 2010)
Each block holds one molecule with its values, some of them ahead of it.

Experiments:
[1] = target: human PlGF-1 comprising amino acids 1-137 produced in human embryonic kidney cells (human) (UniProt P49763); assay: Format 2 …, capture MAb264, detection Pb264; sFlt-1 77 pmol/L (ratio 2.5)
[2] = target: human PlGF-1 comprising amino acids 1-137 produced in human embryonic kidney cells (human) (UniProt P49763); assay: Format 1 …, capture 2-826-335, detection 1-255-713; sFlt-1 1533 pmol/L (ratio 50)
[3] = target: human PlGF-1 comprising amino acids 1-137 produced in human embryonic kidney cells (human) (UniProt P49763); assay: Format 3 Quantikine ELISA, capture MAb264, detection Pb264; sFlt-1 1533 pmol/L (ratio 50)
[4] = target: human PlGF-1 comprising amino acids 1-137 produced in human embryonic kidney cells (human) (UniProt P49763); assay: Format 1 …, capture 2-826-335, detection 1-255-713; sFlt-1 1227 pmol/L (ratio 40)
[5] = target: human PlGF-1 comprising amino acids 1-137 produced in human embryonic kidney cells (human) (UniProt P49763); assay: Format 2 …, capture MAb264, detection Pb264; sFlt-1 1533 pmol/L (ratio 50)
[6] = target: human PlGF-1 comprising amino acids 1-137 produced in human embryonic kidney cells (human) (UniProt P49763); assay: Format 2 …, capture MAb264, detection Pb264; sFlt-1 0 pmol/L (ratio 0)
[7] = target: recombinant human PlGF-1 (comprising amino acids 1-131) expressed in E. coli (R&D Systems) (human) (UniProt P49763); assay: … sandwich, capture MAb255, detection MAb826; antigen 0 pg/mL (blank)
[8] = target: recombinant human PlGF-1 (comprising amino acids 1-131) expressed in E. coli (R&D Systems) (human) (UniProt P49763); assay: … sandwich, capture MAb255, detection pAb264; antigen 15 pg/mL
[9] = target: recombinant human PlGF-1 (comprising amino acids 1-131) expressed in E. coli (R&D Systems) (human) (UniProt P49763); assay: … sandwich, capture MAb255, detection MAb826; antigen 750 pg/mL
[10] = target: T1, human PlGF-1 comprising amino acids 1-137 produced in human embryonic kidney cells (human, UniProt P49763 19-221); assay: … sandwich, capture MAb255, detection MAb826; antigen 750 pg/mL
T1 construct: Mature human PlGF-1 with 6xHis tag; also called HEK (1-137); full length HEK human PlGF-1 (1-137)
T1 sequence: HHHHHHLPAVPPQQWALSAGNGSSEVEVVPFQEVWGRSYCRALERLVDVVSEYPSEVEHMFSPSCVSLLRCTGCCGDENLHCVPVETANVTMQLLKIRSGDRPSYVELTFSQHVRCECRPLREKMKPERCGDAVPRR
How it was run: (§1)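 Human PlGF-1 antigen preparations, including recombinant forms expressed in CHO cells, were tested at 0 to 1500 pg/mL in a sandwich immunoassay. The capture antibody was a monoclonal anti-human PlGF-1 antibody immobilized on magnetic microparticles by passive coating and EDAC cross-linking. Detection used an acridinium ester-labeled monoclonal anti-human PlGF-1 antibody. Signal was recorded as chemiluminescent relative light units (RLU) at each antigen level.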

[11] = target: T2, CHO human PlGF-1 fragment (comprising amino acids 17-131; ATCC PTA-8540) (human, UniProt P49763 35-221); assay: as above
T2 sequence: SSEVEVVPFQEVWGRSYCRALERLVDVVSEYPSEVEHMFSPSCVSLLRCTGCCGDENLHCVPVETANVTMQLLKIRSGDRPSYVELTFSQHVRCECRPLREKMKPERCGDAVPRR
How it was run: as §1

[12] = target: T3, human PlGF-1 fragment (comprising amino acids 17-131) produced in human embryonic kidney cells (human, UniProt P49763 35-221); assay: as above
T3 sequence: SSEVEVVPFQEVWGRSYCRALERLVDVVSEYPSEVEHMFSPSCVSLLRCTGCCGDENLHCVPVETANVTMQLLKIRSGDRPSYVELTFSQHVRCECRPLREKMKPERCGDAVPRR
How it was run: as §1

[13] = target: T4, CHO human PlGF-1 comprising amino acids 1-137 (human PlGF-1-His (1-131), CHO 6305) (human, UniProt P49763 19-221, N-glycans at N21 (completely glycosylated) and N89 (partially glycosylated)); assay: as above
T4 construct: Mature human PlGF-1 with 6xHis tag (137 amino acids); also called CHO (1-137)
T4 sequence: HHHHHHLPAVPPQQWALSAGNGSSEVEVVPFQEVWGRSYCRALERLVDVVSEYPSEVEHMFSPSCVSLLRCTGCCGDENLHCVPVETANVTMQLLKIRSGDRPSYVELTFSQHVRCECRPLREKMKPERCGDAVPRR
How it was run: as §1

[14] = target: recombinant human PlGF-1 (comprising amino acids 1-131) expressed in E. coli (R&D Systems) (human) (UniProt P49763); assay: … sandwich, capture MAb255, detection pAb264; antigen 1500 pg/mL
[15] = target: recombinant human PlGF-1 (comprising amino acids 1-131) expressed in E. coli (R&D Systems) (human) (UniProt P49763); assay: … sandwich, capture MAb255, detection MAb826; antigen 15 pg/mL
[16] = target: T1, human PlGF-1 comprising amino acids …; assay: … sandwich, capture MAb826, detection pAb264; antigen 250 pg/mL
[17] = target: T2, CHO human PlGF-1 fragment (comprising …); assay: as above
[18] = target: T3, human PlGF-1 fragment (comprising amino …); assay: as above
[19] = target: T4, CHO human PlGF-1 comprising amino acids …; assay: as above

% Inhibition [1]: 37.2%
PlGF-1 Measured [1]: 494 pg/mL
% Inhibition [2]: 92.5%
PlGF-1 Measured [2]: 76.6 pg/mL
% Inhibition [3]: 52.1%
PlGF-1 Measured [3]: 415 pg/mL
% Inhibition [4]: 91.9%
PlGF-1 Measured [4]: 83.2 pg/mL
% Inhibition [5]: 93.6%
PlGF-1 Measured [5]: 50.4 pg/mL
% Inhibition [6]: 0%
PlGF-1 Measured [6]: 786 pg/mL
Molecule: native sFlt-1, isolated from human placental tissue (from UniProt P17948 27-687) (receptor)

RLU [7]: 6110 RLU
RLU [8]: 47200 RLU
RLU [9]: 780000 RLU
RLU [10]: 890000 RLU
RLU [11]: 395000 RLU
RLU [12]: 576000 RLU
RLU [13]: 400000 RLU
RLU [14]: 2.19e+06 RLU
RLU [15]: 22700 RLU
B1: monoclonal antibody 1-255-713 (produced by murine hybridoma cell line 1-255-713, ATCC PTA-8536) (antibody, mouse IgG2a, V domains shown)
VH: QVHLQQSGAELMKPGASVKISCKATGYTFSSYWIEWVKQRPGHGLEWIGEILPGSVSNNFNEKFKDKATLTADPSSNTAYIQVSSLTSEDSAVYYCARSTGFYYGGNYFDHWGQGTTLAVSS
VL: DVVMTQTPLSLPVSPGDQASISCRSSQSLVHSNGHTYLHWYLQKPGQSPKLLIYKVSNRFSGVPDRVSGSGSGTDFTLKISRVEAEDLGVYFCSQSTHVPPTFGGGTKLEIKR
notes: also called MAb255

RLU [16]: 173000 RLU
RLU [17]: 93600 RLU
RLU [18]: 126000 RLU
RLU [19]: 66100 RLU
B2: monoclonal antibody 2-826-335 (produced by murine hybridoma cell line 2-826-335, ATCC PTA-8539) (antibody, mouse IgG1, V domains shown)
VH: QVQLKQSGPGLVQPSQSLSITCTVSGFSLTTYGIHWVRQSPGKGLEWLGVMWSGGDTDYDAAFISRLSISKDNSKSQVFFKMNSLQANDTGIYYCARYRFYGMDYWGQGTSVTVSS
VL: AIQMTQSSSSFSVSLGDRVTITCKASEDIYNRFAWYQQKPGNAPRLLISGAASLEAGVPSRFSGSGSGQDYTLSITSLQTEDVATYYCQQYWSTPWTFGGGTKLEIKR
notes: also called MAb826
